According to patent publication US20250152742A1, “COMPOSITIONS AND METHODS FOR NEUROLOGICAL DISEASES” (Trames Bio, Inc., priority 2022, published 2025):

Test system: engineered chimeric receptor SEQ ID NO: 33 and its mutants (human α7-nAChR ligand binding domain / human GlyRα1 ion pore domain) in Lenti-X 293T cells
Experiment: YFP fluorescence quenching anion reporter plate reader assay (percent quench, EC50)
Format: cell-based
Settings: for YFP fluorescence quenching using CNL001 (percent quench): receptor named in row; for YFP fluorescence quenching using Varenicline, 3 nM var: ligand Varenicline 3 nM; for YFP fluorescence quenching using Varenicline, 30 nM var: ligand Varenicline 30 nM; for YFP fluorescence quenching using Varenicline, 300 nM var: ligand Varenicline 300 nM; for YFP fluorescence quenching using Varenicline, 500 nM var: ligand Varenicline 500 nM; for YFP fluorescence quenching using Varenicline, 1 uM var: ligand Varenicline 1 uM
Procedure, shortened: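 Percent quench compares mean YFP signal over the final 10 s with the 15 s baseline before ligand, added in iodide-containing extracellular solution (pH 7.2). Cells were LX293T carrying a YFP anion reporter, transiently transfected with the channel construct; plates were preincubated 30 min at 37 °C.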

B1: CODA342: engineered receptor: L131R in SEQ ID NO: 33 (protein)
chain: MRCSPGGVWLALAASLLHVSLQGEFQRKLYKELVKNYNPLERPVANDSQPLTVYFSLSLLQIMDVDEKNQVLTTNIWLQMSWTDHYLQWNVSEYPGVKTVRFPDGQIWKPDILLYNSADERFDATFHTNVRVNSSGHCQYLPPGIFKSSCPMDLKNFPMDVQTCKLKFGSWSYGGWSLDLQMQEADISGYIPNGEWDLVGIPGKRSERFYECCKEPYPDVTFTVTMRRRMGYYLIQMYIPSLLIVILSWISFWINMDAAPARVGLGITTVLTMTTQSSGSRASLPKVSYVKAIDIWMAVCLLFVFSALLEYAAVNFVSRQHKELLRFRRKRRHHKSPMLNLFQEDEAGEGRFNFSAYGMGPACLQAKDGISVKGANNSNTTNPPPAPSKSPEEMRKLFIQRAKKIDKISRIGFPMAFLIFNMFYWIIYKIVRREDVHNQ
modifications: synthetic sequence of chimeric LGIC
For B1, the “YFP fluorescence quenching using CNL001 (percent quench)” value (1 nM CNL001, first column so headed) was 23.532%, the “YFP fluorescence quenching using CNL001 (percent quench)” value (1 nM CNL001, second column so headed) was 26.054% and the “YFP fluorescence quenching using TC-5619/Bradanicline (percent quench)” value (1 nM brd (TC-5619/Bradanicline)) was −7.83%. For the same molecule, the “YFP fluorescence quenching using TC-5619/Bradanicline (percent quench)” value (3 nM brd (TC-5619/Bradanicline)) was −12.89%, the “YFP fluorescence quenching using CNL001 (percent quench)” value (10 nM CNL001, first column so headed) was 43.69% and the “YFP fluorescence quenching using CNL001 (percent quench)” value (10 nM CNL001, second column so headed) was 54.016%. For the same molecule, the “YFP fluorescence quenching using TC-5619/Bradanicline (percent quench)” value (10 nM brd (TC-5619/Bradanicline)) was −10.47%, the “YFP fluorescence quenching using TC-6683 (percent quench)” value (30 nM TC-6683) was −16.26% and the “YFP fluorescence quenching using TC-5619/Bradanicline (percent quench)” value (30 nM brd (TC-5619/Bradanicline)) was 59.48%. The “YFP fluorescence quenching using CNL001 (percent quench)” value (50 nM CNL001, first column so headed) was 59.955%, the “YFP fluorescence quenching using CNL001 (percent quench)” value (50 nM CNL001, second column so headed) was 56.091% and the “YFP fluorescence quenching using ABT-126 (percent quench)” value (50 nM abt (ABT-126)) was −18.14%. The “YFP fluorescence quenching using CNL001 (percent quench)” value (100 nM CNL001, first column so headed) was 64.536%, the “YFP fluorescence quenching using CNL001 (percent quench)” value (100 nM CNL001, second column so headed) was 58.987% and the “YFP fluorescence quenching (percent quench)” value (100 nM CNL002) was −17.2%. The “YFP fluorescence quenching using ABT-126 (percent quench)” value (100 nM abt (ABT-126)) was −18.14%, the “YFP fluorescence quenching using AZD-0328 (percent quench)” value (100 nM azd0328) was 1.79% and the “YFP fluorescence quenching using TC-5619/Bradanicline (percent quench)” value (100 nM brd (TC-5619/Bradanicline)) was 70.19%. The “YFP fluorescence quenching using TC-6683 (percent quench)” value (300 nM TC-6683) was −22.45%, the “YFP fluorescence quenching using ABT-126 (percent quench)” value (300 nM abt (ABT-126)) was −0.81% and the “YFP fluorescence quenching using AZD-0328 (percent quench)” value (300 nM azd0328) was 66.58%. For the same molecule, the “YFP fluorescence quenching using TC-5619/Bradanicline (percent quench)” value (300 nM brd (TC-5619/Bradanicline)) was 75.11%, the “YFP fluorescence quenching using ABT-126 (percent quench)” value (500 nM abt (ABT-126)) was 23.29% and the “YFP fluorescence quenching using CNL001 (percent quench)” value (1 uM CNL001, first column so headed) was 65.987%. The “YFP fluorescence quenching using CNL001 (percent quench)” value (1 uM CNL001, second column so headed) was 64.312%, the “YFP fluorescence quenching (percent quench)” value (1 uM CNL002) was 8.12% and the “YFP fluorescence quenching using ABT-126 (percent quench)” value (1 uM abt (ABT-126)) was 45.76%. For the same molecule, the “YFP fluorescence quenching using TC-5619/Bradanicline (percent quench)” value (1 uM brd (TC-5619/Bradanicline)) was 77.42%, the “YFP fluorescence quenching using TC-6683 (percent quench)” value (3 uM TC-6683) was −13.48% and the “YFP fluorescence quenching using ABT-126 (percent quench)” value (3 uM abt (ABT-126)) was 53.03%. For the same molecule, the “YFP fluorescence quenching using ABT-126 (percent quench)” value (10 uM abt (ABT-126)) was 64.08%, the “YFP fluorescence quenching (percent quench)” value (10 uM ach (acetylcholine)) was −2.57% and the “YFP fluorescence quenching (percent quench)” value (30 uM CNL002) was 57.24%. For the same molecule, the “YFP fluorescence quenching using TC-6683 (percent quench)” value (30 uM TC-6683) was −12.68%, the “YFP fluorescence quenching using ABT-126 (percent quench)” value (30 uM abt (ABT-126)) was 71.98% and the “YFP fluorescence quenching using AZD-0328 (percent quench)” value (30 uM azd0328) was 80.55%. For the same molecule, the “YFP fluorescence quenching using ABT-126 (percent quench)” value (50 uM abt (ABT-126)) was 73.98%, the “YFP fluorescence quenching using TC-6683 (percent quench)” value (100 uM TC-6683) was −10.33% and the “YFP fluorescence quenching using ABT-126 (percent quench)” value (100 uM abt (ABT-126)) was 73.51%. The “YFP fluorescence quenching (percent quench)” value (100 uM ach (acetylcholine)) was −3.18%, the “YFP fluorescence quenching (percent quench)” value (1 mM ach (acetylcholine)) was 78.98% and the “YFP fluorescence quenching (percent quench)” value (3 mM ach (acetylcholine)) was 75.75%. For the same molecule, the “YFP fluorescence quenching using Facinicline, 30 nM fac” value (ligand Facinicline 30 nM) was −6.2, the “YFP fluorescence quenching using Facinicline, 300 nM fac” value (ligand Facinicline 300 nM) was 76.75 and the “YFP fluorescence quenching using Facinicline, 10 uM fac” value (ligand Facinicline 10 uM) was 82.16. The “YFP fluorescence quenching using Facinicline, 30 uM fac” value (ligand Facinicline 30 uM) was 81.71, the “YFP fluorescence quenching using TC-6987, 1 uM tc6987” value (ligand TC-6987 1 uM) was 2.51 and the “YFP fluorescence quenching using TC-6987, 10 uM tc6987” value (ligand TC-6987 10 uM) was 46.22. For the same molecule, the “YFP fluorescence quenching using TC-6987, 500 uM tc6987” value (ligand TC-6987 500 uM) was 68.33, the “YFP fluorescence quenching using Varenicline, 3 nM var” value (first column) was 0.271 and the “YFP fluorescence quenching using Varenicline, 3 nM var” value (second column) was −3.613. For the same molecule, the “YFP fluorescence quenching using Varenicline, 30 nM var” value (first column) was −4.935, the “YFP fluorescence quenching using Varenicline, 30 nM var” value (second column) was −4.363 and the “YFP fluorescence quenching using Varenicline, 300 nM var” value (first column) was 0.282. For the same molecule, the “YFP fluorescence quenching using Varenicline, 300 nM var” value (second column) was 2.32, the “YFP fluorescence quenching using Varenicline, 500 nM var” value (first column) was 23.777 and the “YFP fluorescence quenching using Varenicline, 500 nM var” value (second column) was 18.376. The “YFP fluorescence quenching using Varenicline, 1 uM var” value (first column) was 66.17 and the “YFP fluorescence quenching using Varenicline, 1 uM var” value (second column) was 66.088.
